We go through one substance from publication doi:10.1101/2025.01.14.633037.

The data set can be described thus: FRET or BRET; DAmFRET: mEos3.1 fusions expressed in S. cerevisiae, galactose induction 20 hr with 100 uM MG132, partial photoconversion of mEos3.1, flow cytometry; AmFRET between copies of the same protein against its intracellular concentration (approximately 2 to 200 uM). For orientation: Bioluminescence resonance energy transfer reports proximity on the nanometre scale.

In the case of “MBP fused to mEos3.1 and poly-TA (28 residues, two continuous TA tracts of length 12)”, the fold increase of Csat against poly-TA without the solubility tag was > 10 fold.
